Assay results published in article PMC12149299 (Cell Discovery, 2025).

Key:
[1] = target: T1, HIV-1 gp120 protein from the JRCSF.JB strain (HIV-1 group M subtype B, JRCSF (clone …, UniProt P20871, strain)); experiment: ELISA; conditions: both partners purified
[2] = target: HIV-1 Env on TNF-α-activated ACH-2 latent HIV-1 cells (HIV-1 group M subtype B, BRU/LAI (ACH-2 …, UniProt P03377, strain)); experiment: flow cytometry on cells; conditions: one partner purified
HIV Env on HL2/3 cells = target: T2, HIV Env on HL2/3 cells (HIV-1 group M subtype B, HXB2 (stand-in …, UniProt P04578, strain)); experiment: flow cytometry on cells; conditions: one partner purified
T2 construct: source: HL2/3 cells (NIH AIDS Program), expressing HIV Env, on the cell surface

[3] = target: HIV-1 gp120 protein from the YU2.DG strain (HIV-1 group M subtype B, YU-2 (clone …, UniProt P35961, strain)); experiment: ELISA; antigens (2 μg/mL) coated on 96-well plates overnight at 4 °C; antibodies serially diluted in disruption buffer, 1 h; HRP goat anti-human IgG, ABTS, 405 nm; conditions: both partners purified
[4] = target: HIV-1 gp120 protein from the BaL.01 strain (HIV-1 subtype B, BaL.01, UniProt Q2MKA9, strain); experiment: as above; conditions: both partners purified
[5] = target: T1, HIV-1 gp120 protein from the JRCSF.JB …; experiment: as above; conditions: both partners purified

Measured: binding result

B1: CH235.12 (antibody, V domains shown)
VH: QVRLAQYGGGVKRLGATMTLSCVASGYTFNDYYIHWVRQAPGQGFELLGYIDPANGRPDYAGALRERLSFYRDKSMETLYMDLRSLRYDDTAMYYCVRNVGTAGSLLHYDHWGSGSPVIVSS
VL: EIVLTQSPATLSASPGERVTLTCRASRSVRNNVAWYQHKGGQSPRLLIYDASTRAAGVPARFSGSASGTEFTLAISNLESEDFTVYFCLQYNNWWTFGQGTRVDIK
binds: [1]

B2: FD22 (antibody, V domains shown)
VH: QVQLSQSGGGAVQPGKSLTLSCRAYGFHLFSYVVVWVRQTPQNGLEWVAGAASGGWPQEFMNSVRGRFSISRDDYTVSLQMNALRVDDSGLYFCAQERGLHRLDGAVKFGRWFRAWGQGSQVVVTS
VL: QSALTQPASVSGSPGQSITLSCTGADNSVSWYQVVPGRAPKLLIFEVNVRPSEVSDRFSGSKSGDTASLTISRLQIEDESDYYCVTRRGDVTYLFGSGTRVSVL
notes: also called FD22-biotin
binds: [2] | HIV Env on HL2/3 cells | [3] | [4] | [5]
